From publication PMC1802081
Where a chain is given by its changes, count along the chain named. Names and notes keep the numbering of the source. Blank lines part the entries; values can stand above or below the binder they belong to.

What was measured:
Test in all cases: SPR; BIACORE 2000; biotinylated ligand on a streptavidin-modified CM5 chip (about 200 RU); receptor ectodomain as analyte at 1, 2, 3, 5, 10, 20 and 50 uM; HBS500 (10 mM HEPES pH 7.4, 500 mM NaCl, 3.4 mM EDTA, 0.005% P20); apparent KD from the dose dependence of equilibrium binding
BMP-2 A86P = biological target: BMP-2 A86P
[1] = biological target: BMP-2 variant L100K/N102D
BMP-2 N102D = biological target: BMP-2 N102D
BMP-2 L100K = biological target: BMP-2 L100K
BMP-2 S85R/A86P = biological target: BMP-2 S85R/A86P
BMP-2 S85R = biological target: BMP-2 S85R

B3: ActR-IIBECD L61A (receptor)
chain: SGRGEAETRECIYYNANWELERTNQSGLERCEGEQDKRLHCYASWRNSSGTIELVKKGCWADDFNCYDRQECVATEENPQVYFCCCEGNFCNERFTHLPEPGGPEVTYEPPPTAPTLLT
Kd [1]: 14 µM

B4: BMPR-II receptor ectodomain (receptor)
chain: SQNQERLCAFKDPYQQDLGIGESRISHENGTILCSKGSTCYGLWEKSKGDINLVKQGCWSHIGDPQECHYEECVVTTTPPSIQNGTYRFCCCSTDLCNVNFTENFPPPDTTPLSPPHSFNRDET
rel. KD (against wildtype BMP-2 from E. coli with the same receptor) (BMP-2 A86P): 0.5 fold | rel. KD (against wildtype BMP-2 from E. coli with the same receptor) [1]: 0.92 fold | rel. KD (against wildtype BMP-2 from E. coli with the same receptor) (BMP-2 N102D): 0.96 fold | rel. KD (against wildtype BMP-2 from E. coli with the same receptor) (BMP-2 L100K): 1.3 fold | rel. KD (against wildtype BMP-2 from E. coli with the same receptor) (BMP-2 S85R/A86P): 0.19 fold | rel. KD (against wildtype BMP-2 from E. coli with the same receptor) (BMP-2 S85R): 0.12 fold

The next lines start with the values.

rel. KD (against wildtype BMP-2 from E. coli with the same receptor) (BMP-2 A86P): 2.6 fold | Kd [1]: 0.14 µM | rel. KD (against wildtype BMP-2 from E. coli with the same receptor) (BMP-2 N102D): 7.8 fold | rel. KD (against wildtype BMP-2 from E. coli with the same receptor) (BMP-2 L100K): 0.15 fold | rel. KD (against wildtype BMP-2 from E. coli with the same receptor) (BMP-2 S85R/A86P): 1.4 fold | rel. KD (against wildtype BMP-2 from E. coli with the same receptor) (BMP-2 S85R): 1.3 fold
B1: ActR-IIBECD wildtype (activin type IIB receptor ectodomain) (receptor)
chain: B3 chain with A61L

Kd [1]: 160 µM
B2: ActR-IIBECD L61P (receptor)
chain: B3 chain with A61P
